T1: in vitro imported Arabidopsis thaliana plastid PDC E1α subunit (Arabidopsis thaliana, UniProt O24457 69-428)
T1 construct: Translated in vitro and imported into chloroplasts
T1 sequence: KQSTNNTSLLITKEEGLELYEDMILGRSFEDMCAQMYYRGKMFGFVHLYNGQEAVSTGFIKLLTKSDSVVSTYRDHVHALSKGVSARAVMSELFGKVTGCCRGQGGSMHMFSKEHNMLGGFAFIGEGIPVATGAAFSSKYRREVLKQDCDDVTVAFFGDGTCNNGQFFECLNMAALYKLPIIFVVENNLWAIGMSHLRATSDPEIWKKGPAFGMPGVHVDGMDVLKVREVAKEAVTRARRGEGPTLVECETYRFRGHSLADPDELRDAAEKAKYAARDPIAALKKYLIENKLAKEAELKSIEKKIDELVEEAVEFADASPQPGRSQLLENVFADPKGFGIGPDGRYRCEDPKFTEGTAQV

T2: plastid pyruvate dehydrogenase heterotetramer (imported plastid PDC E1α and E1β subunits) (Arabidopsis thaliana, UniProt O24457 69-428; Q9C6Z3 74-406)
T2 construct: also called this heterotetramer
T2 sequence 1: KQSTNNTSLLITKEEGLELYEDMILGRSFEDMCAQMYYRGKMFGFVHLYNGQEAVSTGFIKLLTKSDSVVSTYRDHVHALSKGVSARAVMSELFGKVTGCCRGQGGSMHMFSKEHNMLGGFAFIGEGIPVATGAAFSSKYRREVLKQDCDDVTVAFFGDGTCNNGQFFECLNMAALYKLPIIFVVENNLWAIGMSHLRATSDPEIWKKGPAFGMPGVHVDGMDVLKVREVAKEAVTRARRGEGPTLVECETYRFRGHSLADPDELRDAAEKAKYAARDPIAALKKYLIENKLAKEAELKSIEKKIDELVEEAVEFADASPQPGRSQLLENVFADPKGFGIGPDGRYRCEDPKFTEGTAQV
T2 sequence 2: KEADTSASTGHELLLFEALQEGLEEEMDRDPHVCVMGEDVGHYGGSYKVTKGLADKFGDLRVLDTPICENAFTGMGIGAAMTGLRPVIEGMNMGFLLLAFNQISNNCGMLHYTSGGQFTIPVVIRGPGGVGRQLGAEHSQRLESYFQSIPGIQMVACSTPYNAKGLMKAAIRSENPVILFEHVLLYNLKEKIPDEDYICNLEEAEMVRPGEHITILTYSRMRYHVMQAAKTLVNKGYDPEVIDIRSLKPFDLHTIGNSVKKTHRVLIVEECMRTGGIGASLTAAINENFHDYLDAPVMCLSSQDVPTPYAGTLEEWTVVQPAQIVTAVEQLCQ


Key:
[1] = biological target: T1, in vitro imported Arabidopsis thaliana …; assay: in vitro import into chloroplasts and assembly
[2] = biological target: T2, plastid pyruvate dehydrogenase …; assay: in vitro import into chloroplasts and assembly

Row | binding result [1] | binding result [2] | Binder
1 | binds |  | in vitro imported Arabidopsis thaliana plastid PDC E1β subunit (enzyme, Translated in vitro and imported into chloroplasts) KEADTSASTGHELLLFEALQEGLEEEMDRDPHVCVMGEDVGHYGGSYKVTKGLADKFGDLRVLDTPICENAFTGMGIGAAMTGLRPVIEGMNMGFLLLAFNQISNNCGMLHYTSGGQFTIPVVIRGPGGVGRQLGAEHSQRLESYFQSIPGIQMVACSTPYNAKGLMKAAIRSENPVILFEHVLLYNLKEKIPDEDYICNLEEAEMVRPGEHITILTYSRMRYHVMQAAKTLVNKGYDPEVIDIRSLKPFDLHTIGNSVKKTHRVLIVEECMRTGGIGASLTAAINENFHDYLDAPVMCLSSQDVPTPYAGTLEEWTVVQPAQIVTAVEQLCQ
2 |  | binds | in vitro imported Arabidopsis thaliana plastid PDC E2 subunit (enzyme, Translated in vitro and imported into chloroplasts; also called imported PDC E2 subunits) IREIFMPALSSTMTEGKIVSWIKTEGEKLAKGESVVVVESDKADMDVETFYDGYLAAIVVGEGETAPVGAAIGLLAETEAEIEEAKSKAASKSSSSVAEAVVPSPPPVTSSPAPAIAQPAPVTAVSDGPRKTVATPYAKKLAKQHKVDIESVAGTGPFGRITASDVETAAGIAPSKSSIAPPPPPPPPVTAKATTTNLPPLLPDSSIVPFTAMQSAVSKNMIESLSVPTFRVGYPVNTDALDALYEKVKPKGVTMTALLAKAAGMALAQHPVVNASCKDGKSFSYNSSINIAVAVAINGGLITPVLQDADKLDLYLLSQKWKELVGKARSKQLQPHEYNSGTFTLSNLGMFGVDRFDAILPPGQGAIMAVGASKPTVVADKDGFFSVKNTMLVNVTADHRIVYGADLAAFLQTFAKIIENPDSLTL
